Target: recombinant ATP synthase subunit β of A. actinomycetemcomitans, as purified (Aggregatibacter actinomycetemcomitans ATCC 700685 (HK1651))
Experiment: native gel or EMSA; recombinant ATP synthase subunit β on native PAGE, silver stained; three prominent forms

- stoichiometry N: 3
Substance: recombinant ATP synthase subunit β of A. actinomycetemcomitans, as purified (enzyme)

Source: article PMC3078924
